Measurements taken from article PMC5149402.

Target: rat GluD2 ATD tetramerised with an engineered tetrameric coiled-coil zipper based on GCN4 (rat | not stated)

stoichiometry N: 4
Substance: rat GluD2 ATD tetramerised with an engineered tetrameric coiled-coil zipper based on GCN4 (domain or fragment)
